Eight variants from IntAct's records for PubMed 22536782 can be followed below.

B1: GRB2-associated-binding protein 1 (Homo sapiens), Q13480 (parent)
chain: MSGGEVVCSGWLRKSPPEKKLKRYAWKRRWFVLRSGRLTGDPDVLEYYKNDHAKKPIRIIDLNLCQQVDAGLTFNKKEFENSYIFDINTIDRIFYLVADSEEEMNKWVRCICDICGFNPTEEDPVKPPGSSLQAPADLPLAINTAPPSTQADSSSATLPPPYQLINVPPHLETLGIQEDPQDYLLLINCQSKKPEPTRTHADSAKSTSSETDCNDNVPSHKNPASSQSKHGMNGFFQQQMIYDSPPSRAPSASVDSSLYNLPRSYSHDVLPKVSPSSTEADGELYVFNTPSGTSSVETQMRHVSISYDIPPTPGNTYQIPRTFPEGTLGQTSKLDTIPDIPPPRPPKPHPAHDRSPVETCSIPRTASDTDSSYCIPTAGMSPSRSNTISTVDLNKLRKDASSQDCYDIPRAFPSDRSSSLEGFHNHFKVKNVLTVGSVSSEELDENYVPMNPNSPPRQHSSSFTEPIQEANYVPMTPGTFDFSSFGMQVPPPAHMGFRSSPKTPPRRPVPVADCEPPPVDRNLKPDRKVKPAPLEIKPLPEWEELQAPVRSPITRSFARDSSRFPMSPRPDSVHSTTSSSDSHDSEENYVPMNPNLSSEDPNLFGSNSLDGGSSPMIKPKGDKQVEYLDLDLDSGKSTPPRKQKSSGSGSSVADERVDYVVVDQQKTLALKSTREAWTDGRQSTESETPAKSVK

The variants in the first experiment derive from B1. The note with it: with grb2_human GRB2, P62993.
Chain of grb2_human GRB2, P62993 (P62993 whole entry, looked up): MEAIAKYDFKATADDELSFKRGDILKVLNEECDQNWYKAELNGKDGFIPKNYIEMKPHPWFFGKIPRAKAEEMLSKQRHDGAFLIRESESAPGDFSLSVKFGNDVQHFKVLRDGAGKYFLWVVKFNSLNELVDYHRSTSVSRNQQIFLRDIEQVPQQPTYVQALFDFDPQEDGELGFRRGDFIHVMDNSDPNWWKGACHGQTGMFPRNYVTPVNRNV
Turning to L523A, the “effect of a mutation on the interaction” value is “decreasing interaction”. As to R521A, the “effect of a mutation on the interaction” value was “decreasing interaction”.

In the case of K524A, the “effect of a mutation on the interaction” value was “decreasing interaction”. On the same count and under the same terms, as for N522A, the entry is “decreasing interaction”.

Variants of B1 are the subject of another experiment. The conditions noted are these: with grb2_human GRB2, P62993. This is another data set of the same source.
Take P346A: the “effect of a mutation on the interaction” value is on record as “increasing interaction”. With P345A, the “effect of a mutation on the interaction” value is given as “increasing interaction”. Same read-out and setting: as for R344A, the entry is “increasing interaction”.

As to K347A, the “effect of a mutation on the interaction” value is listed as “increasing interaction”.
